Assay results taken from article PMC11310688.

Columns and labels:
[1] = biological target: Halo-HA-Nesp2-SR48∼56 (Nesprin-2 spectrin repeats 48-56) (mouse) (UniProt Q6ZWQ0)
[2] = biological target: dynactin subunit p150^Glued, Q14203-1; test: co-immunoprecipitation (IP: anti-Halo) with immunoblot quantification; details: HEK293 cell lysate, bars mean ± SEM, parent: est. 1.0, read off a plot
[3] = biological target: kinesin heavy chain (KHC) (UniProt P33176); test: as above; details: HEK293 cell lysate; n = 5 independent experiments; bars mean ± SEM; parent: est. 1.0; read off a plot

Substance	velocity of rapalog-induced peroxisome transport by Nesp2-SR48ΔKASH-FRB (5655-6767aa) along microtubules in MRC5 cells, both directions [1]	further results
Bicaudal D2 (BicD2) (from UniProt Q8TD16 1-824) (natural protein)	1 µm/s	
Halo-HA-Nesp2-SR48-KASH (Nesprin-2 SR48-56 and the KASH domain) (from UniProt Q6ZWQ0-1) ALALE>AAAAA; SLFTE>AAAAA; RLARE>AAAAA; AAWLG>VVWLG		ratio to parent ([2]; n = 5 independent experiments): 0.19; ratio to parent [3]: 0.22
Halo-HA-Nesp2-SR48-KASH (Nesprin-2 SR48-56 and the KASH domain) (from UniProt Q6ZWQ0-1) ALALE>AAAAA; SLFTE>AAAAA; RLARE>AAAAA; LEWD>LEAA; AAWLG>VVWLG		ratio to parent ([2]; 3 data points drawn for this bar): 0.08
Halo-HA-Nesp2-SR48-KASH (Nesprin-2 SR48-56 and the KASH domain) (from UniProt Q6ZWQ0-1) LEWD>LEAA		ratio to parent ([2]; n = 5 independent experiments): 0.98
dynactin subunit p150^Glued (from UniProt Q14203-1 1-1278) (natural protein)	1 µm/s	
dynein heavy chain (DHC) (from UniProt Q14204 1-4646) (natural protein)	1 µm/s	
kinesin heavy chain (KHC) (from UniProt P33176 1-963) (natural protein)	1 µm/s	
